Reference: publication PMC10397247

Key:
4H1710-bN = biological target: T1, 4H1710-bN; experiment: two-hybrid library CCNG1;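 further: natural log of median RNA to DNA barcode read ratio; higher means stronger binding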
T1 chain: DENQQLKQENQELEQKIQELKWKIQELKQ

4H1804-bN = biological target: T2, 4H1804-bN; experiment: two-hybrid library CCNG1;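 further: natural log of median RNA to DNA barcode read ratio; higher means stronger binding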
T2 chain: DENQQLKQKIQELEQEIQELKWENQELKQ

4H1899-bN = biological target: T3, 4H1899-bN; experiment: two-hybrid library CCNG1;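 further: natural log of median RNA to DNA barcode read ratio; higher means stronger binding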
T3 chain: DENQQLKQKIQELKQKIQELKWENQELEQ

4H1985-bN = biological target: T4, 4H1985-bN; experiment: two-hybrid library CCNG1;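 further: natural log of median RNA to DNA barcode read ratio; higher means stronger binding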
T4 chain: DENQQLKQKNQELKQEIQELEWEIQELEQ

4H235-bN = biological target: T5, 4H235-bN; experiment: two-hybrid library CCNG1
T5 chain: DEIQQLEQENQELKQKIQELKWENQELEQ

4H3129-bN = biological target: T6, 4H3129-bN; experiment: two-hybrid library CCNG1
T6 chain: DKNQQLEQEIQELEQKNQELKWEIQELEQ

4H3162-bN = biological target: T7, 4H3162-bN; experiment: two-hybrid library CCNG1
T7 chain: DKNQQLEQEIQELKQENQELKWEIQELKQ

4H3172-bN = biological target: T8, 4H3172-bN; experiment: two-hybrid library CCNG1
T8 chain: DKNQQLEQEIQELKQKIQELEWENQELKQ

4H3175-bN = biological target: T9, 4H3175-bN; experiment: two-hybrid library CCNG1
T9 chain: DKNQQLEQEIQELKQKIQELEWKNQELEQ

4H3277-bN = biological target: T10, 4H3277-bN; experiment: two-hybrid library CCNG1
T10 chain: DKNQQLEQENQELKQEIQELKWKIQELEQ

4H3298-bN = biological target: T11, 4H3298-bN; experiment: two-hybrid library CCNG1
T11 chain: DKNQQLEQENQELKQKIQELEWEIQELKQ

4H3414-bN = biological target: T12, 4H3414-bN; experiment: two-hybrid library CCNG1
T12 chain: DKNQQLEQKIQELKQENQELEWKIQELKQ

4H3462-bN = biological target: T13, 4H3462-bN; experiment: two-hybrid library CCNG1
T13 chain: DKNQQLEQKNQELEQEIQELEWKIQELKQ

4H3497-bN = biological target: T14, 4H3497-bN; experiment: two-hybrid library CCNG1
T14 chain: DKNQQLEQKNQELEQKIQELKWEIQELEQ

4H3613-bN = biological target: T15, 4H3613-bN; experiment: two-hybrid library CCNG1
T15 chain: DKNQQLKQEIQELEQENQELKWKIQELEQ

4H3628-bN = biological target: T16, 4H3628-bN; experiment: two-hybrid library CCNG1
T16 chain: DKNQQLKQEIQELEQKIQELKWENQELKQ

4H3631-bN = biological target: T17, 4H3631-bN; experiment: two-hybrid library CCNG1
T17 chain: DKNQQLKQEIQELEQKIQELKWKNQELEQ

4H3638-bN = biological target: T18, 4H3638-bN; experiment: two-hybrid library CCNG1
T18 chain: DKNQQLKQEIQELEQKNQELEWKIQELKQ

4H3817-bN = biological target: T19, 4H3817-bN; experiment: two-hybrid library CCNG1
T19 chain: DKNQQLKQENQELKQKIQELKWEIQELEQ

4H3858-bN = biological target: T20, 4H3858-bN; experiment: two-hybrid library CCNG1
T20 chain: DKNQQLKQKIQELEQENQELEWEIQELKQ

4H3926-bA = biological target: T21, 4H3926-bA; experiment: two-hybrid library CCNG1
T21 chain: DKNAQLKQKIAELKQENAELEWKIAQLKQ

4H3926-bN = biological target: T22, 4H3926-bN; experiment: two-hybrid library CCNG1
T22 chain: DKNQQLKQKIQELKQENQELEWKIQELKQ

4H3974-bN = biological target: T23, 4H3974-bN; experiment: two-hybrid library CCNG1
T23 chain: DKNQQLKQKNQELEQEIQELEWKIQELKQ

4H570-bN = biological target: T24, 4H570-bN; experiment: two-hybrid library CCNG1
T24 chain: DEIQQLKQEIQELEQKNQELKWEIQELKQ

4H584-bN = biological target: T25, 4H584-bN; experiment: two-hybrid library CCNG1
T25 chain: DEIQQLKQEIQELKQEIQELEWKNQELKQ

4H591-bN = biological target: T26, 4H591-bN; experiment: two-hybrid library CCNG1
T26 chain: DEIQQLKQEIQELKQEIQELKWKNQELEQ

4H619-bN = biological target: T27, 4H619-bN; experiment: two-hybrid library CCNG1
T27 chain: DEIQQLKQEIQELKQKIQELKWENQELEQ

4H626-bN = biological target: T28, 4H626-bN; experiment: two-hybrid library CCNG1
T28 chain: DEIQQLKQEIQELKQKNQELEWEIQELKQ

4H850-bN = biological target: T29, 4H850-bN; experiment: two-hybrid library CCNG1
T29 chain: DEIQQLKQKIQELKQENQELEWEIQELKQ

4H906-bN = biological target: T30, 4H906-bN; experiment: two-hybrid library CCNG1
T30 chain: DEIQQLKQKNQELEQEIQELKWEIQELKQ

P3bH1 = biological target: T31, P3bH1; experiment: two-hybrid library CCNG1
T31 chain: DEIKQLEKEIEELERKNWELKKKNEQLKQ

P4bHq = biological target: T32, P4bHq; experiment: two-hybrid library CCNG1
T32 chain: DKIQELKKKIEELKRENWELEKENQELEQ

P5bHq = biological target: T33, P5bHq; experiment: two-hybrid library CCNG1
T33 chain: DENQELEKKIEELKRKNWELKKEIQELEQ

P6bHq = biological target: T34, P6bHq; experiment: two-hybrid library CCNG1
T34 chain: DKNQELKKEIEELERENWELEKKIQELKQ

P7bHq = biological target: T35, P7bHq; experiment: two-hybrid library CCNG1
T35 chain: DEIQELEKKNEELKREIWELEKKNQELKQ

P8bHq = biological target: T36, P8bHq; experiment: two-hybrid library CCNG1
T36 chain: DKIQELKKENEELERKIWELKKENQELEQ

P9bHq = biological target: T37, P9bHq; experiment: two-hybrid library CCNG1
T37 chain: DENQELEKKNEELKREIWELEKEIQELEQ

4H3330-AA = biological target: T38, 4H3330-AA; experiment: two-hybrid library CCmax
T38 chain: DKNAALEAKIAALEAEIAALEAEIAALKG

4H716-AA = biological target: T39, 4H716-AA; experiment: two-hybrid library CCmax; conditions: mean of both orientations
T39 chain: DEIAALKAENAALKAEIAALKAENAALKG

4H733-AA = biological target: T40, 4H733-AA; experiment: two-hybrid library CCmax; conditions: mean of both orientations
T40 chain: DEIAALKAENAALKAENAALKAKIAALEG

4H807-AA = biological target: T41, 4H807-AA; experiment: two-hybrid library CCmax; conditions: mean of both orientations
T41 chain: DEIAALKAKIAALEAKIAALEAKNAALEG

APC1015-AA = biological target: T42, APC1015-AA; experiment: two-hybrid library CCmax; conditions: mean of both orientations
T42 chain: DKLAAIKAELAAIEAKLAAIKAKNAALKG

APC1434-AA = biological target: T43, APC1434-AA; experiment: two-hybrid library CCmax; conditions: mean of both orientations
T43 chain: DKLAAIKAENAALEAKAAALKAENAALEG

APC2237-AA = biological target: T44, APC2237-AA; experiment: two-hybrid library CCmax; conditions: mean of both orientations
T44 chain: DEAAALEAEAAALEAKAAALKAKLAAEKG

APC232-AA = biological target: T45, APC232-AA; experiment: two-hybrid library CCmax; conditions: mean of both orientations
T45 chain: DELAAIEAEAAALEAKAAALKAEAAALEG

APC2405-AA = biological target: T46, APC2405-AA; experiment: two-hybrid library CCmax; conditions: mean of both orientations
T46 chain: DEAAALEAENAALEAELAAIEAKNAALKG

APC3645-AA = biological target: T47, APC3645-AA; experiment: two-hybrid library CCmax; conditions: mean of both orientations
T47 chain: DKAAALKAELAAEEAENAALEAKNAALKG

APC4011-AA = biological target: T48, APC4011-AA; experiment: two-hybrid library CCmax; conditions: mean of both orientations
T48 chain: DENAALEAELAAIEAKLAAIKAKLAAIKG

APC4264-AA = biological target: T49, APC4264-AA; experiment: two-hybrid library CCmax; conditions: mean of both orientations
T49 chain: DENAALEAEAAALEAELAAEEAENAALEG

APC4436-AA = biological target: T50, APC4436-AA; experiment: two-hybrid library CCmax; conditions: mean of both orientations
T50 chain: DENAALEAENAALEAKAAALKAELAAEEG

APC5383-AA = biological target: T51, APC5383-AA; experiment: two-hybrid library CCmax; conditions: mean of both orientations
T51 chain: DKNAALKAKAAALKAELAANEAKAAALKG

APC6108-AA = biological target: T52, APC6108-AA; experiment: two-hybrid library CCmax; conditions: mean of both orientations
T52 chain: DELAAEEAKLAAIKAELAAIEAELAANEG

APC7099-AA = biological target: T53, APC7099-AA; experiment: two-hybrid library CCmax; conditions: mean of both orientations
T53 chain: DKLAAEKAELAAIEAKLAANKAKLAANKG

APC8191-AA = biological target: T54, APC8191-AA; experiment: two-hybrid library CCmax; conditions: mean of both orientations
T54 chain: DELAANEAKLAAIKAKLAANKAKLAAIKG

APC8910-AA = biological target: T55, APC8910-AA; experiment: two-hybrid library CCmax
T55 chain: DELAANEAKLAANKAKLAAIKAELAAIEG

APC9096-AA = biological target: T56, APC9096-AA; experiment: two-hybrid library CCmax; conditions: mean of both orientations
T56 chain: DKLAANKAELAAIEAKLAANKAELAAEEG

APC9319-AA = biological target: T57, APC9319-AA; experiment: two-hybrid library CCmax; conditions: mean of both orientations
T57 chain: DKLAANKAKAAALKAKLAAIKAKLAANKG

B1: 4H1710-bN (peptide)
chain: DENQQLKQENQELEQKIQELKWKIQELKQ
interaction score (4H1710-bN): 0.191
interaction score (4H1804-bN): -0.254
interaction score (4H1899-bN): 0.0366
interaction score (4H1985-bN): 1.36
interaction score (4H235-bN): -2.91
interaction score (4H3129-bN): -0.785
interaction score (4H3162-bN): 0.233
interaction score (4H3172-bN): -0.194
interaction score (4H3175-bN): -0.28
interaction score (4H3277-bN): 0.0226
interaction score (4H3298-bN): 0.498
interaction score (4H3414-bN): -0.297
interaction score (4H3462-bN): -0.312
interaction score (4H3497-bN): 0.701
interaction score (4H3613-bN): -0.41
interaction score (4H3628-bN): 1.45
interaction score (4H3631-bN): 0.993
interaction score (4H3638-bN): -0.0052
interaction score (4H3817-bN): 1.23
interaction score (4H3858-bN): -0.718
interaction score (4H3926-bA): -0.849
interaction score (4H3926-bN): -0.569
interaction score (4H3974-bN): 0.85
interaction score (4H570-bN): 0.578
interaction score (4H584-bN): 0.273
interaction score (4H591-bN): -0.724
interaction score (4H619-bN): 0.707
interaction score (4H626-bN): 0.722
interaction score (4H850-bN): 0.177
interaction score (4H906-bN): 0.452
interaction score (P3bH1): -2.08

B2: P3bHq (peptide)
chain: DEIQELEKEIEELERKNWELKKKNQELKQ
interaction score (P4bHq): 1.75
interaction score (P5bHq): 1.1
interaction score (P6bHq): -0.227
interaction score (P7bHq): 0.482
interaction score (P8bHq): 0.414
interaction score (P9bHq): -0.595

B3: 4H3330-AA (peptide)
chain: DKNAALEAKIAALEAEIAALEAEIAALKG
interaction score (4H3330-AA): 1.32
interaction score (4H716-AA): -1.14
interaction score (4H733-AA): -1.48
interaction score (4H807-AA): -1.35
interaction score (APC1015-AA): -0.658
interaction score (APC1434-AA): -1.62
interaction score (APC2237-AA): -0.433
interaction score (APC232-AA): -1.1
interaction score (APC2405-AA): -1.07
interaction score (APC3645-AA): -1.25
interaction score (APC4011-AA): 2.04
interaction score (APC4264-AA): -1.37
interaction score (APC4436-AA): -1.42
interaction score (APC5383-AA): -1.16
interaction score (APC6108-AA): 0.0413
interaction score (APC7099-AA): -1.98
interaction score (APC8191-AA): 1.43
interaction score (APC8910-AA): -0.0896
interaction score (APC9096-AA): -1.65
interaction score (APC9319-AA): 0.302
